Experimental data published in patent publication US20240043859A1, “HERBICIDE-RESISTANT PROTEIN, AND GENE AND USE THEREOF” (QINGDAO KINGAGROOT CHEMICAL COMPOUND CO., LTD., priority 2020, published 2024).
“Also recorded” adds a separate entry of the source.

Assays:
[1] = Chromogenic reaction of degrading herbicides in bacteria: 2,4-D; format: cell-based, Escherichia coli; details: recombinant E. coli expressing the gene, 2,4-D added to the medium, red = phenols
In short: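 E. coli BL21(DE3) carrying AAD12 or empty pET15b was induced with 0.1 mM IPTG plus 2 mM α-ketoglutarate and given 0.5 mM 2,4-D, then grown overnight at 28 °C. Supernatant was treated with pH 10 borate, potassium ferricyanide and 4-aminoantipyrine for 5 min at room temperature; red colour read at A510.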

[2] = format: cell-based, Escherichia coli
Arabidopsis thaliana [3] = test: Herbicide resistance of transgenic Arabidopsis thaliana seedlings on plate medium (root growth); format: in vivo; details: Arabidopsis overexpressing the gene
In short: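 T2 lines overexpressed AAD from the AtUbi10 promoter with the MAS terminator, with hygromycin selection; two events per construct were tested on plates against 2,4-D, 2,4-DB sodium and MCPA. The screening medium was MS plus 0.3 μM 2,4-D. Seeds were stratified 3 days at 4 °C, grown at 22 °C on 16 h light, and root elongation was compared with wild type after one week.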

Arabidopsis thaliana [4] = test: as above; format: in vivo; details: plate medium with 2,4-D (0.3 μmol)
[5] = Chromogenic reaction of degrading herbicides in bacteria: triclopyr; format: cell-based, Escherichia coli; details: recombinant E. coli expressing the gene

B1: QYD48: AAD-like enzyme, SEQ ID NO. 95 (protein)
chain: MTDRLEIKPLDATFGAVVTGIRLAEIDEPTWRELHATWLKYALLVFPGQHLQRDQQIAFAKRFGPLEFEMAAISNVKSDGTLRIEEDNDDMMKILKGNMGWHADSTYMPVQAKGAVFSAEEVPTIGGQTGWADMRAAYDALDEARKAQIESLQAYHSLHYSQSQLGHQTGKSDGEYSGYGLHDGPVPLRPLVKTHPETGRKSLLIGRHAHNIPGMDRDEARRLLEGLIDFACQPPRIYHHDWAAGDAVVWDNRCLLHQATPWDMTQRRIMWHSRIAGDPASESALAA
modifications: Synthetic polypeptide, QYD48, D48
[1]
  Chromogenic reaction of degrading herbicides in bacteria: 2,4-D: Yes
[1]; listed as D48
  Chromogenic reaction of degrading herbicides in bacteria: 2,4-D: could degrade 2,4-D; also recorded: capable of degrading 2,4-D
[2]
  Chromogenic reaction of degrading herbicides in bacteria: MCPA: Yes
Arabidopsis thaliana [3]
  Resistance of transgenic Arabidopsis thaliana: 2,4-D: Yes
  Resistance of transgenic Arabidopsis thaliana: MCPA: Yes
Arabidopsis thaliana [4]
  2,4-D resistance of T1 generation transgenic seedlings (seminal root growth): showing tolerance to 2,4-D
[5]
  Chromogenic reaction of degrading herbicides in bacteria: Triclopyr: Yes
[5]; listed as D48
  Chromogenic reaction of degrading herbicides in bacteria: Triclopyr: slight degradation
